Laboratory results published in paper PMC7615196, “PIM1 controls GBP1 activity to limit self-damage and to guard against pathogen infection” (Science (New York, N.Y.), 2023).
Changes are numbered by the printed parent chain. Names may count otherwise.

Tests used:
[1] = molecular target: phosphorylated Flag-GBP1 (GBP1pS156) purified from THP-1ΔGBP1+Tet-Flag-GBP1 WT cells (human) (UniProt P32455); assay: co-IP; semi-quantitative co-immunoprecipitation: purified phosphorylated Flag-GBP1 bound to Flag(M2)-agarose beads, incubated with different concentrations of purified HA-14-3-3 proteins for 1 hour at 4°C in 25 mM HEPES pH 7.3, 100 mM NaCl, 0.01% Triton X-100, 5% glycerol, 1 mM DTT; blots …
[2] = molecular target: endogenous GBP1 (IFNγ-treated THP-1 cells) (human (endogenous in THP-1)) (UniProt P32455); assay: cross-linking; GBP1 oligomerization assay: THP-1 cells (IFNγ±Dox; also ΔPIM1 or Δ14-3-3σ cells) lysed, GBP1 precipitated with CHAPS buffer, pellets cross-linked with 4 mM DSS for 30 minutes at room temperature, immunoblot
[3] = molecular target: 14-3-3ζ (UniProt P63104); assay: co-IP of Flag-GBP1 and HA-14-3-3; conditions: reference: wild type; sites S156
[4] = molecular target: 14-3-3γ (UniProt P61981); assay: co-IP of Flag-GBP1 and HA-14-3-3; conditions: reference: wild type; sites S156
[5] = molecular target: 14-3-3ε (UniProt P62258); assay: co-IP of Flag-GBP1 and HA-14-3-3; conditions: reference: wild type; sites S156
[6] = molecular target: 14-3-3σ (UniProt P31947); assay: co-IP of Flag-GBP1 and HA-14-3-3; conditions: reference: wild type; sites S156
[7] = molecular target: 14-3-3θ (UniProt P27348); assay: co-IP of Flag-GBP1 and HA-14-3-3; conditions: reference: wild type; sites S156
[8] = molecular target: 14-3-3η (UniProt Q04917); assay: co-IP of Flag-GBP1 and HA-14-3-3; conditions: reference: wild type; sites S156
[9] = molecular target: 14-3-3β (UniProt P31946); assay: co-IP of Flag-GBP1 and HA-14-3-3; conditions: reference: wild type; sites S156
[10] = molecular target: recombinant GBP1 (non-phosphorylated) (human) (UniProt P32455); assay: SEC; GBP1 dimerization: samples without nucleotide or incubated with 1 mM GTP or 1 mM GDP + 10 mM AlF3; free GBP1 or phosphorylated, 14-3-3σ-bound GBP1
[11] = molecular target: T1, phosphorylated Flag-GBP1 (GBP1pS156) purified from THP-1ΔGBP1+Tet-Flag-GBP1 WT cells (human, UniProt P32455 1-592, phosphoserine at 156); assay: GBP1 phosphorylated at S156; semi-quantitative co-IP
T1 chain: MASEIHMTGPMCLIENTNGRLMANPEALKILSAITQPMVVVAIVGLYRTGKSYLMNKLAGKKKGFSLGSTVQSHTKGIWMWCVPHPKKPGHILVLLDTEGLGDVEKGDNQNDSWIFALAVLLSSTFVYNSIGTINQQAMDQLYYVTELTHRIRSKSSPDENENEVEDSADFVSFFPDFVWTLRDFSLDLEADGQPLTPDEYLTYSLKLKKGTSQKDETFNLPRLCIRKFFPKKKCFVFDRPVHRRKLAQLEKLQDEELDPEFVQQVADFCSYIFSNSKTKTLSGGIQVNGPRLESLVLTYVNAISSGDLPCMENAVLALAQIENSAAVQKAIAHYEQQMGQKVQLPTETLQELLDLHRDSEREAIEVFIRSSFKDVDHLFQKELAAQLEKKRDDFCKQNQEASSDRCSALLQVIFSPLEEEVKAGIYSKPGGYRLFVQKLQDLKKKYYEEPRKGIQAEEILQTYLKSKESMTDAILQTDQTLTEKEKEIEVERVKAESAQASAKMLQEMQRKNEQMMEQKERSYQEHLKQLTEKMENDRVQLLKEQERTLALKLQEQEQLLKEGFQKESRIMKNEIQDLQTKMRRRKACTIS

[12] = molecular target: the molecule itself; assay: cross-linking; GBP1 oligomerization assay: THP-1 cells (IFNγ±Dox; also ΔPIM1 or Δ14-3-3σ cells) lysed, GBP1 precipitated with CHAPS buffer, pellets cross-linked with 4 mM DSS for 30 minutes at room temperature, immunoblot
[13] = molecular target: the molecule itself; assay: cryo-EM structure; single particle cryo-EM of the SEC-purified phospho-GBP1:14-3-3σ complex; crystal structures docked as rigid bodies
[14] = molecular target: T2, in vitro phosphorylated recombinant GBP1 (human, UniProt P32455 1-592, phosphoserine at 156 (GBP1pS156); Ser569 and Thr590 also identified as sites phosphorylated by PIM1 in vitro); assay: ITC; GBP1 phosphorylated at S156
T2 chain: T1 chain

[15] = molecular target: T2, in vitro phosphorylated recombinant GBP1

Molecule: HA-14-3-3σ (from UniProt P31947 1-248) (natural protein)
- Kd [1]: 370 nM

Molecule: endogenous GBP1 (IFNγ-treated THP-1 cells) (from UniProt P32455 1-592) (natural protein)
- stoichiometry N [2]: 2

Molecule: GBP1 (from UniProt P32455) S156A
- binding against the reference [3]: lost
- binding against the reference [4]: lost
- binding against the reference [5]: lost
- binding against the reference [6]: lost
- binding against the reference [7]: lost
- binding against the reference [8]: lost
- binding against the reference [9]: lost

Molecule: recombinant GBP1 (non-phosphorylated) (from UniProt P32455 1-592) (natural protein)
- stoichiometry N [10]: 2

B1: HA-14-3-3θ (natural protein)
chain: MEKTELIQKAKLAEQAERYDDMATCMKAVTEQGAELSNEERNLLSVAYKNVVGGRRSAWRVISSIEQKTDTSDKKLQLIKDYREKVESELRSICTTVLELLDKYLIANATNPESKVFYLKMKGDYFRYLAEVACGDDRKQTIDNSQGAYQEAFDISKKEMQPTHPIRLGLALNFSVFYYEILNNPELACTLAKTAFDEAIAELDTLNEDSYKDSTLIMQLLRDNLTLWTSDSAGEECDAAEGAEN
- Kd [11]: 1730 nM

B2: HA-14-3-3ε (natural protein)
chain: MDDREDLVYQAKLAEQAERYDEMVESMKKVAGMDVELTVEERNLLSVAYKNVIGARRASWRIISSIEQKEENKGGEDKLKMIREYRQMVETELKLICCDILDVLDKHLIPAANTGESKVFYYKMKGDYHRYLAEFATGNDRKEAAENSLVAYKAASDIAMTELPPTHPIRLGLALNFSVFYYEILNSPDRACRLAKAAFDDAIAELDTLSEESYKDSTLIMQLLRDNLTLWTSDMQGDGEEQNKEALQDVEDENQ
- Kd [11]: 1860 nM

B3: GBP1^S156A (Dox-inducible, THP-1ΔGBP1+GBP1^S156A cells) (natural protein, human, UniProt P32455 1-592, looked up)
chain: T1 chain with S156A
notes: pLenti-Tet-GBP1 mutated by site-directed mutagenesis; also called phosphodeficient GBP1; source: THP-1ΔGBP1+Tet-GBP1 S156A, Dox-induced, in lysate
- stoichiometry N [12]: 2

B4: GBP1^R153A/P158A (14-3-3 binding motif mutant, Dox-inducible in THP-1ΔGBP1) (natural protein, human, UniProt P32455 1-592, looked up)
chain: T1 chain with R153A, P158A
notes: pLenti-Tet-GBP1 mutated by site-directed mutagenesis; source: THP-1ΔGBP1+Tet-GBP1 mutant, Dox-induced, in lysate
- stoichiometry N [12]: 2

B5: GBP1^R151A/R153A/K155A (kinase motif mutant, Dox-inducible in THP-1ΔGBP1) (natural protein, human, UniProt P32455 1-592, looked up)
chain: T1 chain with R151A, R153A, K155A
notes: as for B4
- stoichiometry N [12]: 2

B6: HA-14-3-3η (natural protein)
chain: MGDREQLLQRARLAEQAERYDDMASAMKAVTELNEPLSNEDRNLLSVAYKNVVGARRSSWRVISSIEQKTMADGNEKKLEKVKAYREKIEKELETVCNDVLSLLDKFLIKNCNDFQYESKVFYLKMKGDYYRYLAEVASGEKKNSVVEASEAAYKEAFEISKEQMQPTHPIRLGLALNFSVFYYEIQNAPEQACLLAKQAFDDAIAELDTLNEDSYKDSTLIMQLLRDNLTLWTSDQQDEEAGEGN
- Kd [11]: 6430 nM

B7: HA-14-3-3ζ (natural protein)
chain: MDKNELVQKAKLAEQAERYDDMAACMKSVTEQGAELSNEERNLLSVAYKNVVGARRSSWRVVSSIEQKTEGAEKKQQMAREYREKIETELRDICNDVLSLLEKFLIPNASQAESKVFYLKMKGDYYRYLAEVAAGDDKKGIVDQSQQAYQEAFEISKKEMQPTHPIRLGLALNFSVFYYEILNSPEKACSLAKTAFDEAIAELDTLSEESYKDSTLIMQLLRDNLTLWTSDTQGDEAEAGEGGEN
- Kd [11]: 1120 nM

B8: HA-14-3-3β (natural protein)
chain: MTMDKSELVQKAKLAEQAERYDDMAAAMKAVTEQGHELSNEERNLLSVAYKNVVGARRSSWRVISSIEQKTERNEKKQQMGKEYREKIEAELQDICNDVLELLDKYLIPNATQPESKVFYLKMKGDYFRYLSEVASGDNKQTTVSNSQQAYQEAFEISKKEMQPTHPIRLGLALNFSVFYYEILNSPEKACSLAKTAFDEAIAELDTLNEESYKDSTLIMQLLRDNLTLWTSENQGDEGDAGEGEN
- Kd [11]: 2310 nM

B9: HA-14-3-3γ (natural protein)
chain: MVDREQLVQKARLAEQAERYDDMAAAMKNVTELNEPLSNEERNLLSVAYKNVVGARRSSWRVISSIEQKTSADGNEKKIEMVRAYREKIEKELEAVCQDVLSLLDNYLIKNCSETQYESKVFYLKMKGDYYRYLAEVATGEKRATVVESSEKAYSEAHEISKEHMQPTHPIRLGLALNYSVFYYEIQNAPEQACHLAKTAFDDAIAELDTLNEDSYKDSTLIMQLLRDNLTLWTSDQQDDDGGEGNN
- Kd [11]: 4200 nM

B10: recombinant 14-3-3σ (natural protein, human, UniProt P31947 1-248, looked up)
chain: MERASLIQKAKLAEQAERYEDMAAFMKGAVEKGEELSCEERNLLSVAYKNVVGGQRAAWRVLSSIEQKSNEEGSEEKGPEVREYREKVETELQGVCDTVLGLLDSHLIKEAGDAESRVFYLKMKGDYYRYLAEVATGDDKKRIIDSARSAYQEAMDISKKEMPPTNPIRLGLALNFSVFHYEIANSPEEAISLAKTTFDEAMADLHTLSEDSYKDSTLIMQLLRDNLTLWTADNAGEEGGEAPQEPQS
notes: 14-3-3σ (stratifin), ORF from cDNA of IFNγ-primed THP-1 WT cells via pLenti-Tet-14-3-3σ into pET15d-6xHis-3C; homodimer in the cryo-EM map; also called SFN; YWHAS; source: E. coli BL21, purified (Ni-NTA, 3C cleavage, reverse Ni-IMAC, SEC); not shown: His6, N-terminal, cleaved
- stoichiometry N [13]: 2
- Kd [14]: 400 nM
- GTPase activity assay (rate of GTP hydrolysis, free phosphate by Malachite Green), 2 μM purified GBP1:14-3-3σ complex compared to free GBP1 [15]: > 8 fold
